Source: publication PMC10165143 (Computational and Structural Biotechnology Journal, 2023)
Where no end group is shown, it is not given here. [ ]: non-standard residue; d: D form. The star is where a group is joined. FITC = O=C1OC2(c3ccc(O)cc3Oc3cc(O)ccc32)c2ccc(NC(=S)*)cc21; pT = C[C@@H](OP(=O)(O)O)[C@H](N)C(=O)O

Experiments:
[1] = target: T1, Bmh1 (S. cerevisiae 14-3-3 isoform) (S. cerevisiae, UniProt P29311 1-267); assay: fluorescence polarisation
T1 sequence (looked up): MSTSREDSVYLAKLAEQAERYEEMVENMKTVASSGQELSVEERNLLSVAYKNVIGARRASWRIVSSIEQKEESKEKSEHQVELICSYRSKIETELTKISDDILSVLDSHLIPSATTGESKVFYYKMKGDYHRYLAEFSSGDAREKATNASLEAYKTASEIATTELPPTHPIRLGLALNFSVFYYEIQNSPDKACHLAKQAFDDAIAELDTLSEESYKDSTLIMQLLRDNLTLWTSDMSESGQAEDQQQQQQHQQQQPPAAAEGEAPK

[2] = target: T2, Bmh2 (S. cerevisiae 14-3-3 isoform) (S. cerevisiae, UniProt P34730 1-273); assay: fluorescence polarisation
T2 sequence (looked up): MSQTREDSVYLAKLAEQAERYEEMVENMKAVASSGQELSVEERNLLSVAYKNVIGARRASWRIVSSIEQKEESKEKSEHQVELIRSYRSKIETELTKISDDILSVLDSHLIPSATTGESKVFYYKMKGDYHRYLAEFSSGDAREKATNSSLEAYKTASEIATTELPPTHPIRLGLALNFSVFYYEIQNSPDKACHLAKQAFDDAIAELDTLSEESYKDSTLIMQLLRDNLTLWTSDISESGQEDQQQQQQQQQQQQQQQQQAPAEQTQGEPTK

Kd [1]: 4 µM
Kd [2]: 3.4 µM
Binder: {FITC}-RRCF[pT]LLFP [FITC-labeled synthetic Trk1 peptide (FITC-RRCFpTLLFP) with phosphorylated Thr900]
